Measured values taken from PMC7695563.

Molecular target: MG1113, IgG4 monoclonal anti-tissue factor pathway inhibitor (TFPI) antibody
Test: SPR

“TFPI-α (tissue factor pathway inhibitor alpha) (from UniProt P10646-1 29-304) (natural protein)” was tested, and the Kd was 0.0467 nM, the koff was 0.000131 s⁻¹ and the kon was 2.82e+06 M⁻¹ s⁻¹.
